Data taken from patent US20060223116A1 (published 2006).

Biological target: T1, murine ITK (endogenous, mouse thymocytes and CD4 T cells) (mouse, UniProt Q03526 1-625)
T1 construct: Endogenous protein of BALB/c mouse cells; also called endogenous ITK
T1 sequence: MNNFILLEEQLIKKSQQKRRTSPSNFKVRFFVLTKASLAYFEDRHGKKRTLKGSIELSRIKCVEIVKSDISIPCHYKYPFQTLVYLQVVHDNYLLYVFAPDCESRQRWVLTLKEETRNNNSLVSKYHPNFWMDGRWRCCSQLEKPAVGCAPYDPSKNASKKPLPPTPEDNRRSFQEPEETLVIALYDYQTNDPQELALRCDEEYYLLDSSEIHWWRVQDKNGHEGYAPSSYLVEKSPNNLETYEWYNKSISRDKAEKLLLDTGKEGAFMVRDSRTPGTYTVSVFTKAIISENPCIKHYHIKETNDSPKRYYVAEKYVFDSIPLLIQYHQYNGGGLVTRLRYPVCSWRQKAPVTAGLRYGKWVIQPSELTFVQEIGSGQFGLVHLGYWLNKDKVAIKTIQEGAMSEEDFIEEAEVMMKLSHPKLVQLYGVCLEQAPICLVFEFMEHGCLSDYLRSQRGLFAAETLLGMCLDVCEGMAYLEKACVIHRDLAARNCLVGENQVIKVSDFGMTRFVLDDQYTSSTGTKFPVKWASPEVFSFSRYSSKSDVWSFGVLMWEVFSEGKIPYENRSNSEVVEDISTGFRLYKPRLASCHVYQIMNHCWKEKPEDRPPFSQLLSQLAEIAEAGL
Test: IP of T-bet (4B10) from mouse thymocyte nuclear extracts, anti-ITK (2F12) blot
Protocol: Most important, it was determined whether ITK interacted with T-bet under physiological conditions, by determining endogenous association in primary thymocytes. Single cell suspensions were obtained from thymi of BALB/c wt, T-bet^{-/-} and ITK−/− mice and nuclear extracts were prepared with NE-PER (Pierce, Rockford) according to the manufacturer's instructions. Two mg of nuclear extracts were incubated with anti-T-bet mAb, 4B10, in 150 mM NaCl. Immune complexes were resolved and probed with anti-ITK mAb (2F12), and sequentially with 4B10 after stripping. ITK expression was assayed in 30 μg of nuclear extracts. Initial attempts to perform coimmunoprecipitation experiments in naïve Thp cells 24 and 48 hours after TCR stimulation failed, likely secondary to both the low levels of endogenous T-bet expressed at this early time point and the competing processes of phosphorylation and dephosphorylation occurring in activated cells.

B1: murine T-bet (endogenous, mouse thymocytes and Thp cells) (other, UniProt Q9JKD8 1-530, looked up)
chain: MGIVEPGCGDMLTGTEPMPSDEGRGPGADQQHRFFYPEPGAQDPTDRRAGSSLGTPYSGGALVPAAPGRFLGSFAYPPRAQVAGFPGPGEFFPPPAGAEGYPPVDGYPAPDPRAGLYPGPREDYALPAGLEVSGKLRVALSNHLLWSKFNQHQTEMIITKQGRRMFPFLSFTVAGLEPTSHYRMFVDVVLVDQHHWRYQSGKWVQCGKAEGSMPGNRLYVHPDSPNTGAHWMRQEVSFGKLKLTNNKGASNNVTQMIVLQSLHKYQPRLHIVEVNDGEPEAACSASNTHVFTFQETQFIAVTAYQNAEITQLKIDNNPFAKGFRENFESMYASVDTSVPSPPGPNCQLLGGDPFSPLLSNQYPVPSRFYPDLPGQPKDMISQPYWLGTPREHSYEAEFRAVSMKPTLLPSAPGPTVPYYRGQDVLAPGAGWPVAPQYPPKMSPAGWFRPMRTLPMDPGLGSSEEQGSSPSLWPEVTSLQPEPSDSGLGEGDTKRRRISPYPSSGDSSSPAGAPSPFDKETEGQFYNYFPN
notes: mature; Endogenous protein in nuclear extracts; also called endogenous T-bet
- binding result: binds
